Earlier results in article PMC8316261.

Biological target: C5aR (Homo sapiens) (UniProt P21730)
UniProt P21730, sequence (P21730 whole entry): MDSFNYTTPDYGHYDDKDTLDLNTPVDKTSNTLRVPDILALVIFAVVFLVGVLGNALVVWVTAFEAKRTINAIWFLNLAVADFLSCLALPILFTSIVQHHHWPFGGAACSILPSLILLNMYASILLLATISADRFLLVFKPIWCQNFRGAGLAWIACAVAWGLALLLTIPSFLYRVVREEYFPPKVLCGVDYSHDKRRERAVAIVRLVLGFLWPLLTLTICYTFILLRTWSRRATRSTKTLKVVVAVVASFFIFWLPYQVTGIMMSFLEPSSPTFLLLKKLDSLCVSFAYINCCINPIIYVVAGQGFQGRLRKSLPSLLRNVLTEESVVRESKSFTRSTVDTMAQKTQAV

- Kd: 1 nM
Substance: C5a C5a (from UniProt P01031)
